Source: paper PMC9436803
pKd: −log10 of the molar value.

Experiments:
[1] = target: Human IgG1 Fc (residues 216–447) (human); assay: SPR; Biacore T200; IgG1 Fc amine-coupled to a CM5 chip (1 μg/ml); CD16a 0.01-20.48 μM flowed at 10 μl/min; 20 mM MOPS, 100 mM sodium chloride, 1 μM bovine serum albumin, 0.05% P20, pH 7.4; dissociation constants from equilibrium responses; at least five measurements
[2] = target: Human IgG1 Fc (residues 216–447) (human); assay: SPR; Biacore T200; IgG1 Fc amine-coupled to a CM5 chip (0.33 μg/ml); CD16a 0.04-5.12 μM flowed at 60 μl/min, contact 30 s, dissociation 250 s; 20 mM MOPS, 100 mM sodium chloride, 0.05% P20, pH 7.4, no bovine serum albumin; two-state kinetic model

Fc γ receptor IIIa/CD16a F158 allotype with truncated (1)GlcNAc N-glycans (from UniProt P08637 17-254)
pKd [1]: 6.90 | pKd [2]: 7.28 | ka1 (two-state model, major event) [2]: 1.1e+06 M⁻¹ s⁻¹ | ka2 (two-state model, minor event) [2]: 0.0018 s⁻¹ | kd1 (two-state model, major event) [2]: 0.079 s⁻¹ | kd2 (two-state model, minor event) [2]: 0.005 s⁻¹

Fc γ receptor IIIa/CD16a V158 allotype with complex-type N-glycans
pKd [1]: 6.57 | pKd [2]: 7.12 | ka1 (two-state model, major event) [2]: 170000 M⁻¹ s⁻¹ | ka2 (two-state model, minor event) [2]: 0.0061 s⁻¹ | kd1 (two-state model, major event) [2]: 0.025 s⁻¹ | kd2 (two-state model, minor event) [2]: 0.0066 s⁻¹

CD16a V158 S164A with complex-type N-glycans, lacking the N162 glycan (receptor)
pKd [1]: 6.64 | pKd [2]: 6.96 | ka1 (two-state model, major event) [2]: 1.4e+06 M⁻¹ s⁻¹ | ka2 (two-state model, minor event) [2]: 0.0014 s⁻¹ | kd1 (two-state model, major event) [2]: 0.18 s⁻¹ | kd2 (two-state model, minor event) [2]: 0.0078 s⁻¹

Fc γ receptor IIIa/CD16a V158 allotype with oligomannose (Man5GlcNAc2) N-glycans
pKd [1]: 7.07 | pKd [2]: 7.26 | ka1 (two-state model, major event) [2]: 710000 M⁻¹ s⁻¹ | ka2 (two-state model, minor event) [2]: 0.0049 s⁻¹ | kd1 (two-state model, major event) [2]: 0.071 s⁻¹ | kd2 (two-state model, minor event) [2]: 0.006 s⁻¹

CD16a F158 S164A, lacking the N162 glycan (receptor)
pKd [1]: 5.83

Fc γ receptor IIIa/CD16a F158 allotype with oligomannose (Man5GlcNAc2) N-glycans (from UniProt P08637 17-254)
pKd [1]: 5.97

Fc γ receptor IIIa/CD16a V158 allotype with truncated (1)GlcNAc N-glycans
pKd [1]: 7.66 | pKd [2]: 8.04 | ka1 (two-state model, major event) [2]: 2.5e+06 M⁻¹ s⁻¹ | ka2 (two-state model, minor event) [2]: 0.0032 s⁻¹ | kd1 (two-state model, major event) [2]: 0.04 s⁻¹ | kd2 (two-state model, minor event) [2]: 0.0047 s⁻¹
